Where no end group is shown, it is not given here. fluorescein = fluorescein, a fluorescent label on the peptide N-terminus
Key:
Experiment in all cases: fluorescence polarisation
[1] = molecular target: T1, DegS H198P/F234A (E. coli, UniProt P0AEE3 27-355, H198P | F234A)
T1 sequence (looked up): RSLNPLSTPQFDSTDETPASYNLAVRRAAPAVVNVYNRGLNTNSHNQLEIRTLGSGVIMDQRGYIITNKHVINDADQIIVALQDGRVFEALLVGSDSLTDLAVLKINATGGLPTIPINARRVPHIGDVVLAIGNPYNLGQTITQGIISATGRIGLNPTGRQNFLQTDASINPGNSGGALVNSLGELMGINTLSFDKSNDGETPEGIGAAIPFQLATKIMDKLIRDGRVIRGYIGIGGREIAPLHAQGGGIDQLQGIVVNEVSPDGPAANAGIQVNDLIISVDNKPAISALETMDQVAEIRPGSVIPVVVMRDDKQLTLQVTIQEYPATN

[2] = molecular target: T2, DegS P229A (E. coli, UniProt P0AEE3 27-355, P229A)
T2 sequence (looked up): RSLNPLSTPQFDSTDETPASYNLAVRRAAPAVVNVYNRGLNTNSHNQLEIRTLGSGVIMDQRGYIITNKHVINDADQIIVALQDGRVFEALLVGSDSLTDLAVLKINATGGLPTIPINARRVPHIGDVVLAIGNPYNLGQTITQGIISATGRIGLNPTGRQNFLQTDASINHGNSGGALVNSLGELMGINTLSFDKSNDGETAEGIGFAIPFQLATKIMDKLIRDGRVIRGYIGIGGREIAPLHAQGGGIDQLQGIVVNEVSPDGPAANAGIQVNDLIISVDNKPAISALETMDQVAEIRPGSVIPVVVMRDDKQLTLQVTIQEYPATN

[3] = molecular target: T3, DegS T169A/H198P (E. coli, UniProt P0AEE3 27-355, T169A | H198P)
T3 sequence (looked up): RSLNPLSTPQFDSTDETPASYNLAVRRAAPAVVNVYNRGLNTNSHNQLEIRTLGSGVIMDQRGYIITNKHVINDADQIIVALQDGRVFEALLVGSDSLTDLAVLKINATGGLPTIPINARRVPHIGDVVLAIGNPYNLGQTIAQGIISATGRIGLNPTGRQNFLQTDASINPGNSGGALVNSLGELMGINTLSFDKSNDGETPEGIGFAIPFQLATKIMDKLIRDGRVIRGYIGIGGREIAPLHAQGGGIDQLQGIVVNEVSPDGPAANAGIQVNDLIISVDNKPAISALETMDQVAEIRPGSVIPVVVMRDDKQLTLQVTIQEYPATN

[4] = molecular target: T4, DegS H198P/P229A (E. coli, UniProt P0AEE3 27-355, H198P | P229A)
T4 sequence (looked up): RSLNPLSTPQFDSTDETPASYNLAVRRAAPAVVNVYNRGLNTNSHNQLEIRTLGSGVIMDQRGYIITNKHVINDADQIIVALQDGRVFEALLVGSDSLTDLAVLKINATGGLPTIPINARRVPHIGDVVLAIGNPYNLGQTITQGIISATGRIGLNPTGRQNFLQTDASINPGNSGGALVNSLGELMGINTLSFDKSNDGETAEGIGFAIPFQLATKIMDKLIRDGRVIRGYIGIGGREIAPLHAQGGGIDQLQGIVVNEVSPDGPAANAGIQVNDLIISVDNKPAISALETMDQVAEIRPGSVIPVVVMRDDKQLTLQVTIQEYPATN

[5] = molecular target: T5, DegS Q187A/H198P (E. coli, UniProt P0AEE3 27-355, Q187A | H198P)
T5 sequence (looked up): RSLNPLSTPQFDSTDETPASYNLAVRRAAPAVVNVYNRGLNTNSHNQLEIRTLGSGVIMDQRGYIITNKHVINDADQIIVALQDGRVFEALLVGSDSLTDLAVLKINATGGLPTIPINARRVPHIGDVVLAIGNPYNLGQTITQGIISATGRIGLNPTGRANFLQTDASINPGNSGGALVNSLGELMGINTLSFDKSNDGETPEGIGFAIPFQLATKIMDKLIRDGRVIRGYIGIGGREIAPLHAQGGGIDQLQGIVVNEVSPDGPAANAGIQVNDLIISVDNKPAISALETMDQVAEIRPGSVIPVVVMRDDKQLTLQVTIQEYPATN

Kd [1]: 2900 ± 100 nM
Kd [2]: 1600 ± 200 nM
Kd [3]: 2000 ± 200 nM
Kd [4]: 2000 ± 100 nM
Kd [5]: 1500 ± 100 nM
Binder: fluorescein-DNRDGNVYYF [fluorescent OMP peptide fluorescein-DNRDGNVYYF]

From PMC4351158 (Structure (London, England : 1993), 2015)
